Results from patent US20160009819A1 (SHIONOGI, published 2016).

T1: mouse EL with C2 tag (mouse, UniProt Q9WVG5 21-500)
T1 construct: Heparin extract of transfected HEK293F cells; also called mouse E1; not shown: C2 tag
T1 sequence (looked up): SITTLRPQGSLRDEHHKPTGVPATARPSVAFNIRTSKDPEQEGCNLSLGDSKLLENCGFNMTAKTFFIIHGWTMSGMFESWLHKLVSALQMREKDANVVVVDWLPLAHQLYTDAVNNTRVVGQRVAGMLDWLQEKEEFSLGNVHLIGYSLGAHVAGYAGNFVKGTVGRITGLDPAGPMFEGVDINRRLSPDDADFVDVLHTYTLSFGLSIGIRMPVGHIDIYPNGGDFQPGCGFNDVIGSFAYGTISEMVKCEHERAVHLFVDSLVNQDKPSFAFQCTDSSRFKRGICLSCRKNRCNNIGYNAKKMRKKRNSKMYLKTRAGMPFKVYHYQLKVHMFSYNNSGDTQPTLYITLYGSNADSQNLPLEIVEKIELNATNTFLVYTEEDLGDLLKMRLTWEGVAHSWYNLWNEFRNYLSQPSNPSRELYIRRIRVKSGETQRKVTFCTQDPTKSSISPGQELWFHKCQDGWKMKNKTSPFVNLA

T2: human [1-305]-mouse chimeric EL with C2 tag (human; mouse, UniProt Q9WVG5 306-500)
T2 construct: Heparin extract of transfected HEK293F cells; probably 97; Built here from the name of the chimera; not shown: C2 tag
T2 sequence: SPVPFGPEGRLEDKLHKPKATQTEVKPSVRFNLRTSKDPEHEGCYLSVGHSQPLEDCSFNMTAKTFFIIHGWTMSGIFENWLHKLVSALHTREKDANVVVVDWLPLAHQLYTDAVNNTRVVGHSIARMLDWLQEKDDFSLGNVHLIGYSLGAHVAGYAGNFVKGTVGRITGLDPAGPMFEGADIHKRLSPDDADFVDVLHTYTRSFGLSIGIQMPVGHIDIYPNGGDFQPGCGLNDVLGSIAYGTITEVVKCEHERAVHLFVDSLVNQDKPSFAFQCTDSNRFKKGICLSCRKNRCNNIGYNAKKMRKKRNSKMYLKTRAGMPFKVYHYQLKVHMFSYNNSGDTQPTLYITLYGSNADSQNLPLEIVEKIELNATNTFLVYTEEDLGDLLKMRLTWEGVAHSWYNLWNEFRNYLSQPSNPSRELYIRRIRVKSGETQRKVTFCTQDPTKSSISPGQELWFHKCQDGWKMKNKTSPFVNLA

T3: baboon EL (vascular endothelial lipase) with C2 tag (baboon, UniProt Q9Y5X9 21-500 (human entry), limits assumed)
T3 construct: also called baboon EL-C2 tag
T3 chain: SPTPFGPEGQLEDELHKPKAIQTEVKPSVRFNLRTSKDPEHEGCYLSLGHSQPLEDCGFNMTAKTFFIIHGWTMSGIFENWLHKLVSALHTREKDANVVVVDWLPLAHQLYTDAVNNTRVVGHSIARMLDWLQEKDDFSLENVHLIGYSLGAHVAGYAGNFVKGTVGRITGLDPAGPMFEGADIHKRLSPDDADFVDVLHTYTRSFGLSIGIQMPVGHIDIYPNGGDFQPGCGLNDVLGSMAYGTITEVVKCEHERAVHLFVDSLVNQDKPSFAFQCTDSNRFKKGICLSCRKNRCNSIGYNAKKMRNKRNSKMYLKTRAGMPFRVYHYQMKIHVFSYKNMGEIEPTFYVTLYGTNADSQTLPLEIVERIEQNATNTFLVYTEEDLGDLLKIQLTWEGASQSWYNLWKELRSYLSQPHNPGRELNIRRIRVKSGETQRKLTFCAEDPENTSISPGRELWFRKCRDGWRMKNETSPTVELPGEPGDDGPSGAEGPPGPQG

T4: human [1-157]-mouse chimeric EL with C2 tag (human; mouse, UniProt Q9WVG5 158-500)
T4 construct: Heparin extract of transfected HEK293F cells; shifted by one: 4); Built here from the name of the chimera; not shown: C2 tag
T4 sequence: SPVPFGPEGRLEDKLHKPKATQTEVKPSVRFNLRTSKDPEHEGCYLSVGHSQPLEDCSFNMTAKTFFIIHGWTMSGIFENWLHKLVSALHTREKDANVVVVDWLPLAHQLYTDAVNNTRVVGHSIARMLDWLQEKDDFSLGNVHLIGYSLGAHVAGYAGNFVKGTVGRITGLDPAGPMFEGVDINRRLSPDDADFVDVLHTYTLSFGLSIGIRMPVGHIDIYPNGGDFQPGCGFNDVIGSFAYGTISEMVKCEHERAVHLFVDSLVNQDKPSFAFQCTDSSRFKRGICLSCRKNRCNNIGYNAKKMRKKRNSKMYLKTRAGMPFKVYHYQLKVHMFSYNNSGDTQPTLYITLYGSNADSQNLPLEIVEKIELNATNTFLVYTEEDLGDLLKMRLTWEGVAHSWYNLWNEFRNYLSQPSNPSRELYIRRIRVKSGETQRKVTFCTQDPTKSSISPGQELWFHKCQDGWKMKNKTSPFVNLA

B1: 55A1 antibody (antibody, V domains shown)
VH: QIHLVQSGPELKKPGETVKISCKASGYTFTNYGMNWVKQAPGKGLKWMGWINTYSGVPTYAGDFKGRFAFSLETSASTAYLQINNLKNEDTATYFCARRGYYGRRYFDVWGTGTTVTVSS
VL: DIVLTQSPASLAVSLGQRATISCKASQSVDYDVDSYMHWYQQKPGQPPKLLIYAASNLASGIPARFSGGGSGTDFTLNIHPVEEEDVATYYCQQTIEDPPTFGGGTKLEIK
notes: Mouse hybridoma antibody, IgG2a
B2: 53A11 antibody (antibody, V domains shown)
VH: EVQLQQSGPELLKPGASVKISCKASGYTFTDYTMHWVKQSHGKSLEWIGGINPYYGGTTYNEKFKDKATLTVDKSSSTAYMELRSLTSEDSAVYYCAKGDYYGGSYNYWGQGTTLTVSS
VL: DIVLTQSLATLSVTPGDSVSLSCRASQDISNSLHWYQQKSHESPRLLIKYASQSISGIPSRFSGSGSGTDFTLSINSVETEDFGMYFCQQSNSWPYTFGGGTKLEIK
notes: as for B1
B3: 16B3 antibody (antibody, V domains shown)
VH: DVKLVESGGGLVQPGGSLKLSCTASGFTFSGYTMSWVRQTPEKRLELVAEISFARDRAFYPDTVKGRFTISRDNAKNTLYLQMSSLKSEDTAMYYCTRLGGRNHDYWYFDVWGTGTTVTVSS
VL: DIVLTQSPTSLAVSPGQRATISCRASESVEYYGTSLMQWYQQKPGQRPQLLIYAASNVESGVPARFSGSGSGTDFSLNIHPVEEDDIAVYFCQQSWKVPFTFGSGTKLEIK
notes: as for B1
B4: 16E7 antibody (antibody, V domains shown)
VH: EVKLVESGGGLVQPGGSLKLSCAASGFTFSSYTMSWVRQTPEKRLELVAEISFTRSRAFYPDTVKGRFTISRDNAKNTLYLQMSSLKSEDTAMYYCARLGGNNYDYWYFDVWGTGTTVTVSS
VL: DIVLTQSPTSLAVSLGQRATISCRASESVEYYGTSLMQWYQQKPGQRPKLLIYAASNVESGVPARFSGSGSGTDFSLNIHPVEEDDIAMYFCQQSWKVPFTFGSGTKLEIK
notes: Mouse hybridoma antibody, IgG1
B5: 19E7 antibody (antibody, V domains shown)
VH: QVQLQQPGSVLVRPGASVKLSCKASGYTFTTYWMHWVKQRPGQGLEWIGEIHPYSGNNNNNEKFKGKATLTVDTSSSTAYVDLSRLTSEDSAVYYCARYDSNYVFAYWGQGTLVTVSA
VL: QIVLTQSPAIMSASPGEGVTITCSASSSVSYMHWFQQKPGTSPKLWIYSTSNLASGVPARFSGSGSGTSYSLTISRMEAEDAATYYCQQRDSYLTFGSGTKLEVK
notes: as for B1
B6: 14A1 antibody (antibody, V domains shown)
VH: QIQLVQSGPELKKPGETVKISCKASGYTFTNYGMNWVKQAPGKGLKWMGWINTYSGVPTYADDFKGRFAFSLETSASTAYLQINNFKNEDTATYFCARFSYYGRHYFDYWGQGTALTASS
VL: DIVLTQSPASLAVSLGQRATISCKASQSVDYDGDSYMNWYQQKPGQPPKLLIYAASNLKSGIPARFSGSGSGTDFTLNIHPVEEEDAATYYCQQTTDDPPWTFGGGTKLEIK
notes: as for B4
B7: 2D5 antibody (antibody, V domains shown)
VH: QIQLVQSGPELKKPGETVKISCKASGYTFTNYGMNWVKQAPGKGLKWMGWINTYSGVPTYTDDFKGRFAFSLETSASTAFLQINNLKNEDTATYFCARFSYYGRHYFDYWGQGTTLTVSS
VL: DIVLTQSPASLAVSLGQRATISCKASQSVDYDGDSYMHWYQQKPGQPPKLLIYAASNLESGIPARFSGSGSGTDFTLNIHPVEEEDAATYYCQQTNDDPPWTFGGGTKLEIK
notes: as for B1
B8: 7D4 antibody (antibody, V domains shown)
VH: QIQLVQSGPELKKPGETVKISCKASGYTFTNYGMNWVKQAPGKDLKWMGWINTYSGVPTYADDFKGRFAFSLETSASTAYLQINNLKNEDTATYFCARFSYYGRHYFDYWGQGTTLTVSS
VL: DIVLTQSPASLAVSLGQRATISCKASQSVDYDGDSYMNWYQQKPGQPPQLLIYAASNLGSGIPARFSGSGSGTDFTLNIHPVEEEDAATYYCHQSTDDPPWTFGGGTKLEIK
notes: as for B4
B9: 23H8 antibody (antibody, V domains shown)
VH: EVQLQQSGPELLKPGASVKISCKASGYTFTDNTIHWVKQSHGKSLEWIGHINPYYGGTNNNEKFKDKATLTVDKSSSTAYMELRSLTSEDSAIYYCARKGIYYSSPFDYWGQGTTLTVSS
VL: DIQMTQTTSSLSASLGDRVTISCRASQDINNYLNWYQQKPDGTVKLLISYTSKLHSGVPSRFSGSGSGTDYSLTISNLEREDFATYFCQQGNTLPFTFGSGTNLEIK
notes: as for B1
B10: 13B3 antibody (antibody, V domains shown)
VH: EVQLQQSGPELLKPGASVKISCKASGYTFTEYTMHWVKQSHGKSLEWIGSINPYYGGTSYNEKFKDKATLTVDKSSNTAYMEFRSLTSEDCAVYYCARYGNYVGYFDYWGQGTTLTVSS
VL: ENVLTQSPAIMSASLGEKVTMSCRASSSVHYMYWYQQKSDASPKLWIYYTSNLAPGVPDRFSGSGSGNSYSLTISSMEGEDAATYYCQQFTSSPYTFGGGTKLEIK
notes: as for B1

Tests used:
[1] = target: T1, mouse EL with C2 tag; assay: ELISA: antibody captured on anti-mouse IgG-Fc plate, C2-tagged EL heparin extract added, anti-C2-tag detection, A450 (Example 8)
Protocol: (§1) Assay buffer containing 15 μl of anti-EL antibody was added to anti-mouse IgG-Fc antibody-immobilized microtiter plate, and incubated for 2 hr. […] After washing the wells three times with 90 μL, of washing buffer, 15 μl of assay buffer containing biotin-labeled anti-C2-tag antibody and HRP-labeled Streptavidin were added to the wells and incubated at room temperature for 1 hr. After washing the wells three times with 90 μL of washing buffer, 15 μL of TMB+-Substrate-Chromogen (DAKO) was added and incubated at room temperature for 30 min and then 15 μL of 0.05 M H2SO₄ was added and absorbance at 450 nm was measured (FIG. 3A-3K).

[2] = target: T2, human [1-305]-mouse chimeric EL with C2 …; assay: SPR (Biacore), EL captured by anti-C2-tag antibody on CM5 chip, antibody injected, bivalent fit
Protocol: (§2) The binding affinities of anti-EL antibodies were measured using Biacore. […] Then, anti-EL antibodies were added and the binding affinities were calculated by bivalent fitting of BIAevaluation software.

[3] = target: T3, baboon EL (vascular endothelial lipase) …; assay: ELISA: antibody captured on anti-mouse IgG-Fc plate, C2-tagged EL heparin extract added, anti-C2-tag detection, A450 (Example 8)
Protocol: as §1

[4] = target: T3, baboon EL (vascular endothelial lipase) …; assay: SPR (Biacore), EL captured by anti-C2-tag antibody on CM5 chip, antibody injected, bivalent fit
Protocol: as §2

[5] = target: T4, human [1-157]-mouse chimeric EL with C2 …; assay: ELISA: antibody captured on anti-mouse IgG-Fc plate, C2-tagged EL heparin extract added, anti-C2-tag detection, A450 (Example 8)
Protocol: as §1

Binder	binding result [1]	also measured
B1	no binding (tested: about 300 ng/mL)	–
B2	no binding (tested: about 300 ng/mL)	–
B3	no binding (tested: about 300 ng/mL)	–
B4	–	kon [2]: 950000 M⁻¹ s⁻¹; EC50 (read off the curve) [3]: ~10 ng/mL
B5	no binding (tested: about 300 ng/mL)	kon [4]: 67000 M⁻¹ s⁻¹; binding result [5]: no binding (tested: about 300 ng/mL)
B6	no binding (tested: about 300 ng/mL)	–
B7	no binding (tested: about 300 ng/mL)	–
B8	no binding (tested: about 300 ng/mL)	–
B9	no binding (tested: about 300 ng/mL)	–
B10	no binding (tested: about 300 ng/mL)	–
